Measurements reported in patent US20090170069A1 (ARIZONA BOARD OF REGENTS ON BEHALF OF THE UNIVERSITY OF …, published 2009).

Biological target: T1, Vascular Endothelial Growth Factor (VEGF), His-tagged, refolded dimer (UniProt P15692-4 37-135)
T1 sequence (looked up): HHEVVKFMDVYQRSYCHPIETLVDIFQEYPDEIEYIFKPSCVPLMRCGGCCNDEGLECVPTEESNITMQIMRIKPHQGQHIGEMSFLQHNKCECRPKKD

B1: Flt-1 domain 2 fused to the N-terminal half of firefly luciferase (residues 2-416) (receptor, UniProt P17948 129-229, looked up, not shown: small tags and cut ends)
chain: SDTGRPFVEMYSEIPEIIHMTEGRELVIPCRVTSPNITVTLKKFPLDTLIPDGKRIIWDSRKGFIISNATYKEIGLLTCEATVNGHLYKTNYLTHRQTNTIEDAKNIKKGPAPFYPLEDGTAGEQLHKAMKRYALVPGTIAFTDAHIEVNITYAEYFEMSVRLAEAMKRYGLNTNHRIVVCSENSLQFFMPVLGALFIGVAVAPANDIYNERELLNSMNISQPTVVFVSKKGLQKILNVQKKLPIIQKIIIMDSKTDYQGFQSMYTFVTSHLPPGFNEYDFVPESFDRDKTIALIMNSSGSTGLPKGVALPHRTACVRFSHARDPIFGNQIIPDTAILSVVPFHHGFGMFTTLGYLICGFRVVLMYRFEEELFLRSLQDYKIQSALLVPTLFSFFAKSTLIDKYDLSNLHEIASGGAPLSKEVGEAVAKRFHLPGIRQGYGLTETTSAILITPEGDDKPGAVGKVVPFFEAKVVDLDTGKTLGVNQRGELCVRGPMIMSGYVNNPEATNALIDKDG
fold increase in luminescence: 15 fold
